Experiment [1] concerns the target Cad11-12 truncated Bt-R1a cadherin expressed in S2 cells (Manduca sexta). The experiment is described as follows: 125I-Cry1Ab saturation binding on S2 cell suspensions.
Experiment [2] shares this target. The experiment is described as follows: 125I-Cry1Ab toxin binding saturation assay on S2 cells; concentration of receptors.
The target of experiment [3] is Cad7-12 truncated Bt-R1a cadherin expressed in S2 cells (Manduca sexta). The experiment is described as above.
Experiment [4] addresses Cad12 truncated Bt-R1a cadherin expressed in S2 cells (Manduca sexta). The experiment is described as above.
The target of experiment [5] is Manduca sexta cadherin Bt-R1a, full length, expressed in Drosophila S2 cells (Manduca sexta). The experiment is described as above.
Experiment [6] deals with Cad11-12 truncated Bt-R1a cadherin expressed in S2 cells (Manduca sexta). The experiment is described as follows: 125I-Cry1Ab toxin binding saturation assay on S2 cells; dissociation constant (Kcom).
Experiment [7] deals with Cad12 truncated Bt-R1a cadherin expressed in S2 cells (Manduca sexta). The experiment is described as above.
Experiment [8] addresses Manduca sexta cadherin Bt-R1a, full length, expressed in Drosophila S2 cells (Manduca sexta). Described as above.

pKd: −log10 of the molar value.

The term pKd denotes the Kd on a negative log10 scale, so that one unit is a factor of ten. In turn, Cry1Ab toxin (ligand) had a fold higher concentration of binding sites than Cad12 in experiment [1] of 3 fold. Also, the Bmax (fmoles/mg protein) in experiment [2] was found to be 3320; in experiment [3] it was 506; in experiment [4] it was 1410; in experiment [5], 625. Besides, the pKd in experiment [6] was 8.45; in experiment [7], 8.54; in experiment [8] it was 8.45.

The values above are taken from patent publication US20050283857A1.
